Test results: patent US5668107A, “Compositions and methods for inhibiting elastase” (The UAB Research Foundation, priority 1995, dated 1997)
Each block holds one molecule with its values, some of them ahead of it. Where no end group is shown, it is not given here.

Experiments:
[1] = target: T1, HNE (human neutrophil elastase) (Homo sapiens, UniProt P08246); assay: Serine protease assay with p-nitroanilide substrate, HNE; type: biochemical
T1 sequence (P08246 30-267): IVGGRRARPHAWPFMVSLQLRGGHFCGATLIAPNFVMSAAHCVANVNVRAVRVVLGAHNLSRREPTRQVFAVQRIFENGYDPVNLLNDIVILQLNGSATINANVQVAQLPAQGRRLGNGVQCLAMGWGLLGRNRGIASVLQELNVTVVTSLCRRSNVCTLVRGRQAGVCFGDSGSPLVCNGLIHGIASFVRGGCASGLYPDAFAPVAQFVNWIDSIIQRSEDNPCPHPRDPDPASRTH
Protocol: (§1) Serine protease assays were performed using p-nitroanalide amide substrates. Trypsin activity was assayed by using Benzyl-PHE-VAL-ARG-PNA (0.5 mg/ml). Chymotrypsin activity was assayed by using SUC-(ALA)2 -PRO-PHE-PNA (SEQ ID NO:5) (10 mg/ml in DMSO). Elastase activity was assayed by using SUC-(ALA)3 -PNA (10 mg/ml in DMSO). The dilution of each of these enzymes required to produce a change in absorbance of approximately 0.4 after a 15 min incubation at 37° C. was initially determined. The complete reaction mixture contained 10 μls of this enzyme dilution plus 100 μls of the appropriate above substrate and 0-50 uls of the indicated concentration of inhibitor or TBS to maintain constant volume. Trypsin, chymotrypsin, and HNE assays were incubated at 37° C. for 15 min, while pancreatic elastase assays were incubated at 37° C. for 1.5 min. The reaction was terminated by the addition of a sufficient quantity of ice cold TBS to bring each assay up to a final volume of 1 ml. The absorbance of the p-nitroaniline produced was measured against a distilled water blank at 410 nm on a Hitachi model 100-40 spectrophotometer. Percent inhibition was calculated as: 100-[(A1 E+I/A1 E)×100].

[2] = target: T2, DFP-treated human neutrophil cathepsin G (Homo sapiens, UniProt P08311); assay: ELISA binding to DFP-treated cathepsin G; conditions: FIG. 3B, 10 μg/ml, corrected for non-specific binding to BSA
T2 sequence (P08311 21-243 limits assumed): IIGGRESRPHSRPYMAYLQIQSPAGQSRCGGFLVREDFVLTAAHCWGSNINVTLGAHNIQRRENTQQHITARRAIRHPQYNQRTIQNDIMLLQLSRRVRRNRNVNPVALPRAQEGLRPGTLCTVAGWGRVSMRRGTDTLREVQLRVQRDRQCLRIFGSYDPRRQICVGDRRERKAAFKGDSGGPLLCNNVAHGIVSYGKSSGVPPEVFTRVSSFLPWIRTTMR
Protocol: (§2) Plastic microtiter wells were coated overnight at 4° C. with 100 μls of antigens appropriately diluted in PBS. Plates were washed 3× with approximately 300 μls PBS/well. Any remaining reactive sites were blocked by adding 200 μls 1% BSA in PBS/well and incubating for 1 hr at 37° C. The plates were again washed 3× with approximately 300 μls PBS/well. The rabbit anti-human AAT and HSA polyclonal antibodies were diluted 1/40,000 with PBS containing 0.05% Tween-20. 50 μls of this diluted primary antibody was added/appropriate well. The plate was again incubated for 1 hr at 37° C., then washed 3× with approximately 300 μls PBS/well. 50 μls of an appropriately diluted secondary antibody (goat anti-rabbit IgG diluted 1/16,000) was added/well. The plates were again incubated for 1 hr at 37° C., then washed 5× with approximately 300 μls PBS/well. 50 μls of color developing ortho-phenylenediamine (OPD) solution was added/well. The plates were incubated for 30 min at 37° C. The reaction was finally stopped by the addition of 50 μls/well of 4.5M sulfuric acid and read at 492 nm.
(§3) An ELISA was also developed to quantitate the potential binding affinity of various antigens for AAT (SEQ ID NO:1) and/or SPAAT (SEQ ID NO:4). […]

Trypsin = target: T3, Trypsin (Bos taurus, UniProt P00760); assay: Serine protease assay with p-nitroanilide substrate, trypsin; type: biochemical; conditions: FIG. 2, preliminary enzyme kinetic experiments, desalted SPAAT preparations
T3 construct: gene PRSS1
T3 sequence (P00760 24-246): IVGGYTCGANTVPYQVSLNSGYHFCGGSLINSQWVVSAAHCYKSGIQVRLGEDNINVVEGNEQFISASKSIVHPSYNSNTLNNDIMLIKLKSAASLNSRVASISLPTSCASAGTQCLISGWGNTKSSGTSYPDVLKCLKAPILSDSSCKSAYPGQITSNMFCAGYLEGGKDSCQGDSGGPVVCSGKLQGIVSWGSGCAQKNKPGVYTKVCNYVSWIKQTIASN
Protocol: as §1

Pancreatic elastase = Pancreatic elastase (Homo sapiens, UniProt Q9UNI1); assay: Serine protease assay with p-nitroanilide substrate, pancreatic elastase; type: biochemical; conditions: FIG. 2, preliminary enzyme kinetic experiments, desalted SPAAT preparations
Sequence of Pancreatic elastase (Q9UNI1 19-258): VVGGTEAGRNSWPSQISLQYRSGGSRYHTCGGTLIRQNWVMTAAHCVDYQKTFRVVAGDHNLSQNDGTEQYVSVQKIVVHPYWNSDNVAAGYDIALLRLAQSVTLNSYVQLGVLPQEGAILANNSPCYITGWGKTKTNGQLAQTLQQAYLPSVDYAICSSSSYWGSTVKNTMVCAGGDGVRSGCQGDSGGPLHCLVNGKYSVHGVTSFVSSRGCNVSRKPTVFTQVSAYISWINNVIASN
Protocol: as §1

[3] = target: T4, DFP-treated human neutrophil elastase (Homo sapiens, UniProt P08246); assay: ELISA binding to DFP-treated HNE; conditions: FIG. 3A, 10 μg/ml, corrected for non-specific binding to BSA
T4 sequence (P08246 30-247 limits assumed): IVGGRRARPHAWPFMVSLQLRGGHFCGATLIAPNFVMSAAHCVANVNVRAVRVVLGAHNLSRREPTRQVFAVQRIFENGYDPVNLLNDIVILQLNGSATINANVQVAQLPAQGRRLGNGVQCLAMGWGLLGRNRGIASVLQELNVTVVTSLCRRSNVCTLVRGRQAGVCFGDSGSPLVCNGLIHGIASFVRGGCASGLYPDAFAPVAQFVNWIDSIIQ
Protocol: as §2, §3

Chymotrypsin [4] = target: Chymotrypsin (Bos taurus, UniProt P00766); assay: Serine protease assay with p-nitroanilide substrate, chymotrypsin; type: biochemical
Protocol: as §1

Chymotrypsin [5] = assay: enzyme inhibition kinetics with chymotrypsin, p-nitroanilide substrate
[6] = target: human neutrophil elastase (active enzyme) (human) (UniProt P08246)
[7] = FIG. 2, preliminary enzyme kinetic experiments, desalted SPAAT preparations

Molecule: SPAAT: 44-residue C-terminal fragment of α1 antitrypsin (MET-351 to LYS-394); desalted preparations isolated from human placenta (MFLEAIPMSIPPQVKFNKPFVFLMIEQNTKSPLFMGKVVNPTQK)
binding to DFP-treated cathepsin G [2]: bound | effect on trypsin (Trypsin): no effect | inhibition of pancreatic elastase (rank order of inhibition) (Pancreatic elastase): chymotrypsin>HNE>pancreatic elastase | binding to DFP-treated HNE [3]: bound | inhibition of chymotrypsin (rank order of inhibition) (Chymotrypsin [4]; [7]): chymotrypsin>HNE>pancreatic elastase | KI relative to Km, competitive inhibitor of chymotrypsin (Chymotrypsin [4]; preliminary calculations from inhibitor concentrations required to totally inhibit chymotrypsin): ~ 1/10 | inhibition of HNE activity (compared with native AAT) [1, 7]: almost as well as native AAT

Molecule: α1 Antitrypsin (AMFLEAIPMSIPPEVKFNKPFVFLMIEQNTKSPLFMGKVVNPTQK) [AAT]
binding to DFP-treated cathepsin G [2]: bound | binding to DFP-treated HNE [3]: bound

Molecule: MFLEAIPMSIPPQVKFNKPFVFLMIEQNTKSPLFMGKVVNPTQK [SPAAT isolated from human placenta (44-residue C-terminal fragment of alpha1 antitrypsin)]
Ki (Chymotrypsin [5]): 0.92 µM

Results, then the molecule that gave them:

effectiveness as inhibitor of HNE relative to SPAAT isolated from placenta, mole-for-mole ([1]; ratio of the KI values): eight-fold less effective
Molecule: MFLEAIPMSIPPQVKFNKPFVFLMIEQNTKSPLFMGKVVNPTQK [chemically synthesized SPAAT]

Ki (Chymotrypsin [4]; chymotrypsin as the subject enzyme): 0.92 µM
Molecule: placental SPAAT: SPAAT isolated from human placenta, associated with collagen in the placental material (MFLEAIPMSIPPQVKFNKPFVFLMIEQNTKSPLFMGKVVNPTQK)

Ki (Chymotrypsin [5]): 7.5 µM | inhibitory effectiveness, mole-for-mole [6]: 8 fold
Molecule: MFLEAIPMSIPPQVKFNKPFVFLMIEQNTKSPLFMGKVVNPTQK [chemically synthesized SPAAT]
